Experimental data taken from paper PMC4428071 (2015).
Read-outs that look alike come from different tables or passages of the source.

T1: full-length recombinant 3D7 MSP2 (Plasmodium falciparum, UniProt P50498 21-246)
T1 chain: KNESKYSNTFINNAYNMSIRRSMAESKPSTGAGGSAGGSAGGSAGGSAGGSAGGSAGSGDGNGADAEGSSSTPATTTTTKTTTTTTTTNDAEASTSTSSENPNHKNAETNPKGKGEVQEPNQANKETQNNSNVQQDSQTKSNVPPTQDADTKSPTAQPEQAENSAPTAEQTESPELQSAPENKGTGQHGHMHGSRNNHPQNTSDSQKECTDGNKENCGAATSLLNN

T2: full-length recombinant FC27 MSP2 (Plasmodium falciparum, UniProt P19260 21-261)
T2 chain: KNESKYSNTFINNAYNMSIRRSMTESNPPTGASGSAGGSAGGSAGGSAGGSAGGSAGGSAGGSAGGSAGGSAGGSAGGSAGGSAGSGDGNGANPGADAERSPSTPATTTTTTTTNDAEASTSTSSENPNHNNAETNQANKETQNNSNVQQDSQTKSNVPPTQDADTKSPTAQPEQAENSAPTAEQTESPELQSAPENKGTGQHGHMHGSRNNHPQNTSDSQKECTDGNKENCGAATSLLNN

B1: 6D8 scFv (scFv, V domains shown)
VH: QVQLQQSGDELVKPGASVKLSCTVSGFNIKDDFIHWMKQRPEQGLEWIGRIDPANGYTKYAPKFQDKATMTADTSSNTAYLQLSSLASEDAAVYYCATYGVAYWGQGTLVTVSA
VL: DIVLTQSPASLAVSLGQRATISCKASQSVDHDGDSYMNWFQQKPGQSPKLLIYAASNLESGIPARFSGSGSGTDFTLNIHPVEEEDAATYYCQQTNEDPYTFGGGTKLEIK

Experiments:
Test in all cases: ITC
6D8 scFv = target: B1
[1] = target: T1, full-length recombinant 3D7 MSP2
[2] = target: T2, full-length recombinant FC27 MSP2
[3] = target: T1, full-length recombinant 3D7 MSP2
[4] = target: T2, full-length recombinant FC27 MSP2

Binder | Kd (6D8 scFv) | Kd [1] | Kd [2] | Kd [3] | Kd [4]
NAYNMSIRRSMANEGSN [FC27-MSP2_(14-30)] | 16 nM |  |  |  | 
mouse monoclonal antibody 6D8 (antibody, V domains shown) VH: QVQLQQSGDELVKPGASVKLSCTVSGFNIKDDFIHWMKQRPEQGLEWIGRIDPANGYTKYAPKFQDKATMTADTSSNTAYLQLSSLASEDAAVYYCATYGVAYWGQGTLVTVSA VL: DIVLTQSPASLAVSLGQRATISCKASQSVDHDGDSYMNWFQQKPGQSPKLLIYAASNLESGIPARFSGSGSGTDFTLNIHPVEEEDAATYYCQQTNEDPYTFGGGTKLEIK |  | 64 nM | 16 nM |  | 
B1 |  | 61 nM | 13 nM | 61 nM | 13 nM
NAYNMSIRRSMAESKPS [3D7-MSP2_(14-30)] | 64 nM |  |  |  | 
